Data: patent publication US20230110875A1 (US Dept. of Health and Human Services, published 2023)

Molecular target: T1, mouse CD276-AP fusion protein (mouse, UniProt Q8VE98 29-248)
T1 construct: Coated on the ELISA plate at 2 ug/ml; not shown: AP fusion partner
T1 sequence (looked up): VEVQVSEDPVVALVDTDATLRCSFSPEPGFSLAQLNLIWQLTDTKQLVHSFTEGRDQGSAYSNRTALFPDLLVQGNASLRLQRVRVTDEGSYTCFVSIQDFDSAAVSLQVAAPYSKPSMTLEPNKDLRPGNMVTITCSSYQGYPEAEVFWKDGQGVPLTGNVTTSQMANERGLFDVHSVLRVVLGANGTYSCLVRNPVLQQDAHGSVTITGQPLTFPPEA
Assay: ELISA, mouse CD276-AP fusion protein coated at 2 ug/ml, serially diluted scFv-Fc culture medium, HRP goat anti-human IgG, OD 450 nm
Description: 50 μl of the diluted mouse or human CD276-AP fusion protein in PBS at 2 μg/ml was coated in a 96-well plate at 4° C. overnight. Transiently expressed scFv-Fc fusion protein in the culture medium was serially diluted and added into the target protein coated wells. After washing, a 1:3000 diluted horseradish peroxidase (HRP) conjugated goat anti-human IgG antibody was added for 1 hr at RT. After washing, 3, 3, 5, 5′-Tetramethylbenzidine (TMB) substrate was added, and the optical density (O.D.) was read at 450 nm.

binding result: no binding
B1: Clone CD276.1 (m851) scFv-Fc fusion protein (Fc fusion)
scFv: QVQLQQSGAEVKKPGSSVKVSCKASGGTFSSYAISWVRQAPGQGLEWMGGIIPILGIANYAQKFQGRVTITADESTSTAYMELSSLRSEDTAVYYCARGGAGGSGSYYPLIWGQGTTVTVSSGGGGSGGGGSGGGGSEIVLTQSPATLSLSPGERATLSCGASQSVSSSYLAWYQQKPGQAPRLLIYDASSRATGIPARFSGSGSGTDFTLTISSLEPEDFAVYYCQQRSSWPPTWTFGQGTKLEIKR
notes: also called m851 (CD276.1); not shown: Fc-Avi tag from modified pSecTag vector
